The test has as its target Amyloid Beta (antigen of the Amyloid Beta ELISA) (UniProt P05067). The test is described as follows: Amyloid Beta ELISA; purified antibodies from stable NS0 cell lines. A general note: ELISA stands for enzyme-linked immunosorbent assay.

Amyloid Beta (antigen of the Amyloid Beta ELISA), sequence (P05067 672-713 limits assumed): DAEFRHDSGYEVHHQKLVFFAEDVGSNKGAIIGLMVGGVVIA

B1: humanized antibody C2 HuVH2/HuVK3 (antibody, human IgG4 S228P, kappa, V domains shown)
VH: EVQLVESGGGLVQPGGSLRLSCAASGFTFSSYGMSWVRQAPGKGLEWVASINSNGGSTYYPDSVKGRFTISRDNAKNSLYLQMNSLRAEDTAVYYCASGDYWGQGTTVTVSS
VL: DIVMTQSPLSLPVTPGEPASISCRSSQSLVYSNGDTYLHWYLQKPGQSPKLLIYKVSNRFSGVPDRFSGSGSGTDFTLKISRVEAEDVGVYYCSQSTHVPWTFGQGTKVEIKR
B1: the fold reduction of binding activity compared to chimeric control antibody C2 ChVHAF/ChVK came to 2 fold.
